Consider one substance from patent US20090203598A1.

This experiment deals with ShB-IR (Shaker ShB variant with inactivation removed) (UniProt P08510). Nature of the experiment: cell-based or functional assay.
ShB-IR (Shaker ShB variant with inactivation removed), sequence (P08510 other isoform, or with tags, fused parts or gaps mutant): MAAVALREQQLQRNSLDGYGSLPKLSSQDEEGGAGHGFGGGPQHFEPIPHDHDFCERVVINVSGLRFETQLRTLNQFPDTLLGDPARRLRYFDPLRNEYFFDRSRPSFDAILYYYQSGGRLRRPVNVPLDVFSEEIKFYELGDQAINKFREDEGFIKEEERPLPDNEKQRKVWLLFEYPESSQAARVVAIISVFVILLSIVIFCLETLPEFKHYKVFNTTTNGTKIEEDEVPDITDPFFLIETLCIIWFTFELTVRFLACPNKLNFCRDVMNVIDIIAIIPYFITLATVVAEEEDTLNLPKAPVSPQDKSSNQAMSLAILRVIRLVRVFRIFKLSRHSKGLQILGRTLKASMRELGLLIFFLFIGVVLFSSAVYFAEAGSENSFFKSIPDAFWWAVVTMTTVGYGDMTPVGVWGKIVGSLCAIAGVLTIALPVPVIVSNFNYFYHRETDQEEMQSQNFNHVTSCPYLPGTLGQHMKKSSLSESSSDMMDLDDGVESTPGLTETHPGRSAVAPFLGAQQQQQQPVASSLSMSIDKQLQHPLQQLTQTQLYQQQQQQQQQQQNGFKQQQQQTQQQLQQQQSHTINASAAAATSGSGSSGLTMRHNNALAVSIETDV

Regarding “recombinant charybdotoxin (ChTx) (from UniProt P13487 23-59) (peptide)”, the inhibition of ShB-IR currents by 24 nM recombinant ChTx, two-electrode voltage clamp was 15%.
